Test results published in patent publication US20250312491A1, “BASE EDITING OF TRANSTHYRETIN GENE” (Beam Therapeutics Inc., priority 2022, published 2025).
Oligonucleotides are written 5' to 3', each unit as a sugar letter and its base; * is a phosphorothioate linkage, no mark a phosphodiester; rarer units and linkages stand in square brackets, end groups in braces. Plain capitals give the bases only. m = 2'-O-methyl; r = 2'-OH (RNA)

Legend:
[1] = molecular target: T1, Asialoglycoprotein receptor (ASGP-R) (Homo sapiens, UniProt P07306); conditions: ligand: N-acetylgalactosamine (GalNAc); cited from earlier work
T1 sequence (P07306 1-291): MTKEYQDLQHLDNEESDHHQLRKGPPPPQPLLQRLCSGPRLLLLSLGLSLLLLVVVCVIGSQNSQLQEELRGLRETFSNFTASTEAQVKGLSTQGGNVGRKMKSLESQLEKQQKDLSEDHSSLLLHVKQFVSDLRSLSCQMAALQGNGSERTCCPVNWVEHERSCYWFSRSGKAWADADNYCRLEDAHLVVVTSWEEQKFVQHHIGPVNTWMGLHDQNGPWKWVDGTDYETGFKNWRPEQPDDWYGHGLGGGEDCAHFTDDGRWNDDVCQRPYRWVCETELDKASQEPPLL
T1 sequence (P07307 1-311 partner): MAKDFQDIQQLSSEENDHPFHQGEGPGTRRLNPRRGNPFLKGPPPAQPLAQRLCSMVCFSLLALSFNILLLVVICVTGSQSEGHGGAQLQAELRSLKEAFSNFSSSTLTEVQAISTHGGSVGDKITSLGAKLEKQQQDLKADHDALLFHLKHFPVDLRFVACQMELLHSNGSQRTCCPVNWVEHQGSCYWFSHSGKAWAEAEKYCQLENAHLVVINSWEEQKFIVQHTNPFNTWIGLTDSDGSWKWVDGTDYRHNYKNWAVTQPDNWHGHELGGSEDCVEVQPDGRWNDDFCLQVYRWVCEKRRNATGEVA

TTR on-target site = experiment: Off-target validation in human primary hepatocytes: on-target site editing; format: cell-based; conditions: for on-target site editing efficiency (in words): treated vs control groups, human primary hepatocytes
Protocol: (§2) Several candidate off-target sites were analyzed for off-target editing in human primary hepatocytes.

[2] = tested on: candidate off-target sites; experiment: Off-target validation in human primary hepatocytes: candidate off-target site editing; format: cell-based
Protocol: With a view towards establishing the safety of a base-editing therapy knocking down of TTR in the human liver in vivo, off-target mutagenesis analysis is assessed in primary human hepatocytes. […] The in vitro biochemical assay ONE-seq was used to generate a list of candidate off-target sites and to determine the propensity of a ribonucleoprotein comprising the ABE8.8 base editor protein and each of the three protospacer guides sequences (GA457, GA460, and GA461) to cleave oligonucleotides in a library.
For each site, the total number of edited reads was normalized to the total number of edited reads assigned to the on-target site, and this ratio defines the ONE-seq score for the site. Sites were ranked by ONE-seq score, and those with a score equal to or larger than 0.001, were selected for validation. A score equal to or larger than 0.001 encompasses sites that have down to 1000-fold less editing activity in the biochemical assay compared to editing of the on-target site. This threshold is based on the premise that in cells, if there is 100% on-target editing, 1/1000-fold less editing activity would translate to <0.1% off-target editing, which falls below the lower limit of detection of editing by NGS.
as §2

human TTR gene = experiment: Base editing in primary human hepatocytes co-transfected with gRNA and ABE8.8 mRNA, NGS; format: cell-based; conditions: for Human hepatocytes- Editing % 625, rep 1 / Human hepatocytes- Editing % 625, rep 2: 625 ng/RNA/mL; for Human hepatocytes- Editing % 625, rep 1 / Human hepatocytes- Editing % 1250, rep 1 / Human hepatocytes- Editing % 2500, rep 1: rep 1, 3 days after transfection; for Human hepatocytes- Editing % 625, rep 2 / Human hepatocytes- Editing % 1250, rep 2 / Human hepatocytes- Editing % 2500, rep 2: rep 2, 3 days after transfection; for Human hepatocytes- Editing % 1250, rep 1 / Human hepatocytes- Editing % 1250, rep 2: 1250 ng/RNA/mL; for Human hepatocytes- Editing % 2500, rep 1 / Human hepatocytes- Editing % 2500, rep 2: 2500 ng/RNA/mL; for editing activity in human primary hepatocytes (in words): ABE8.8 mRNA co-transfection
Excerpt: With this example, gRNA sequences were identified that permit ABE8.8 (and other ABE variants containing Streptococcus pyogenes Cas9, such as ABE7.10, or another Cas protein that can use the NGG PAM) to either: 1) disrupt the start codon, or 2) disrupt splice sites, whether donors or acceptors, via A→G editing within its editing window (roughly positions 4 to 7 in the 20-nt protospacer region of DNA). Five sequences were identified throughout the human TTR gene (Table 1). gRNAs were synthesized matching each of the protospacer sequences and otherwise conforming to the standard 100-nt Streptococcus pyogenes CRISPR gRNA sequence, with each gRNA molecule having a minimal degree of chemical modifications (specified in Table 1).
(§1) The mRNA, and corresponding amino acid, sequence of the ABE8.8 (MA004) used in shown below in Table 11. Three days after transfection, genomic DNA was harvested from the hepatocytes, and assessed for base editing with next-generation sequencing of PCR amplicons generated around the target splice site. […] See FIGS. 5A-5C, FIG. 6, and Tables 2-3.

[3] = tested on: cynomolgus monkey TTR gene; experiment: Base editing in primary cynomolgus hepatocytes transfected with gRNA and ABE8.8 mRNA, NGS; format: cell-based; conditions: for Cyno hepatocytes- Editing % 156.25: 156.25 ng/RNA/mL; for Cyno hepatocytes- Editing % 312.5: 312.5 ng/RNA/mL; for Cyno hepatocytes- Editing % 625: 625 ng/RNA/mL; for Cyno hepatocytes- Editing % 1250: 1250 ng/RNA/mL; for Cyno hepatocytes- Editing % 2500: 2500 ng/RNA/mL; for Cyno hepatocytes- Editing % 5000: 5000 ng/RNA/mL; for editing activity in cynomolgus primary hepatocytes (in words): ABE8.8 mRNA co-transfection
Excerpt: as §1

TTR gene = experiment: GA521 dose response base editing in primary human hepatocytes, NGS; format: cell-based; conditions: MessengerMax transfection, various doses total RNA (ng/ml), 3 days
Excerpt: Exemplary guide RNA GA521 was transfected into primary human hepatocytes using MessengerMax transfection. GA521 disrupts the start codon AUG of the TTR gene by editing it to ACG with an A-to-G base editor (e.g., ABE8.8; ABE8.8-m).
Three days after transfection, genomic DNA was harvested from the hepatocytes, and assessed for base editing with next-generation sequencing of PCR amplicons generated around the target splice site.
FIG. 29 depicts dose response for human gRNA GA521 in primary human hepatocytes. Percent base editing at various doses (ng/ml) total RNA was determined from NGS analysis. GA521 was the guide RNA.

[4] = GA457 site OT29 GACATCCTGTCAAGGATCAG
[5] = GA457 site OT31 GCCATAAGCCAAAGAATGAC
[6] = GA460 On-target TATAGGAAAACCAGTGAGTC
[7] = GA459 On-target GCAACTTACCCAGAGGCAAA

| Molecule | on-target site editing efficiency (in words) (TTR on-target site) | Human hepatocytes- Editing % 625, rep 1 (human TTR gene) [%] | Human hepatocytes- Editing % 625, rep 2 (human TTR gene) [%] | Human hepatocytes- Editing % 1250, rep 1 (human TTR gene) [%] | Human hepatocytes- Editing % 1250, rep 2 (human TTR gene) [%] | Human hepatocytes- Editing % 2500, rep 1 (human TTR gene) [%] | Human hepatocytes- Editing % 2500, rep 2 (human TTR gene) [%] | editing activity in human primary hepatocytes (in words) (human TTR gene) | Cyno hepatocytes- Editing % 156.25 [3] [%] | Cyno hepatocytes- Editing % 312.5 [3] [%] | Cyno hepatocytes- Editing % 625 [3] [%] | Cyno hepatocytes- Editing % 1250 [3] [%] | Cyno hepatocytes- Editing % 2500 [3] [%] | Cyno hepatocytes- Editing % 5000 [3] [%] | editing activity in cynomolgus primary hepatocytes (in words) [3] | off-target editing at candidate off-target sites (in words) ([2]; human primary hepatocytes) | other results |
| --- | --- | --- | --- | --- | --- | --- | --- | --- | --- | --- | --- | --- | --- | --- | --- | --- | --- |
| CC(=O)NC1O[C@H](CO)[C@H](O)[C@H](O)[C@H]1O (stereo partly drawn) [N-Acetyl-D-Galactosylamine] |  |  |  |  |  |  |  |  |  |  |  |  |  |  |  |  | affinity for ASGP-R relative to D-Gal [1]: 50 fold |
| GA457: guide RNA, human TTR, protospacer GCCATCCTGCCAAGAATGAG (SEQ ID NO: 24), gRNA SEQ ID NO: 11 (nucleic acid, chemistry not given here) guide: GCCATCCTGCCAAGAATGAGGTTTTAGAGCTAGAAATAGCAAGTTAAAATAAGGCTAGTCCGTTATCAACTTGAAAAAGTGGCACCGAGTCGGTGCTTTT | high editing efficiency | 17.24 | 15.39 | 26.49 | 24.86 | 33.96 | 31.31 | high editing activity |  |  |  |  |  |  |  |  | % Editing-human primary hepatocytes Treated (TTR on-target site; GA457 On-target GCCATCCTGCCAAGAATGAG): 54.21%; % Editing-human primary hepatocytes Net (TTR on-target site; GA457 On-target GCCATCCTGCCAAGAATGAG, treated minus untreated): 54.1%; net editing at all off-target sites ([2]; 47 candidate off-target sites, human primary hepatocytes): less than 0.4%; % Editing-human primary hepatocytes Net ([2]; GA457 site OT3 GCCATACCTGCCATGAATGAG): 0.01%; % Editing-human primary hepatocytes Net [2, 4]: 0.05%; % Editing-human primary hepatocytes Treated [2, 4]: 0.21%; % Editing-human primary hepatocytes Net [2, 5]: 0.09%; % Editing-human primary hepatocytes Treated [2, 5]: 0.09% |
| GA460: guide RNA, human/cyno TTR, protospacer TATAGGAAAACCAGTGAGTC (SEQ ID NO: 26), gRNA SEQ ID NO: 14 (nucleic acid, chemistry not given here) guide: TATAGGAAAACCAGTGAGTCGTTTTAGAGCTAGAAATAGCAAGTTAAAATAAGGCTAGTCCGTTATCAACTTGAAAAAGTGGCACCGAGTCGGTGCTTTT | high editing efficiency | 23.77 | 22.27 | 38.33 | 35.8 | 47.61 | 47.79 | high editing activity | 1.62 | 11.22 | 18.44 | 31.71 | 38.25 | 40.16 | high editing activity | little to no off-target editing | SUM Editing %-Human Primary Hepatocytes Treat rep 1 (TTR on-target site; [6]): 76.4%; SUM Editing %-Human Primary Hepatocytes Treat rep 2 (TTR on-target site; [6]): 74.3% |
| GA461: guide RNA, human/cyno TTR, protospacer TACTCACCTCTGCATGCTCA (SEQ ID NO: 27), gRNA SEQ ID NO: 15 (nucleic acid, chemistry not given here) guide: TACTCACCTCTGCATGCTCAGTTTTAGAGCTAGAAATAGCAAGTTAAAATAAGGCTAGTCCGTTATCAACTTGAAAAAGTGGCACCGAGTCGGTGCTTTT | high editing efficiency | 21.81 | 22.31 | 32.82 | 32.38 | 40.42 | 39.43 | high editing activity | 0.07 | 7.45 | 13.16 | 19.46 | 29.8 | 37.53 | high editing activity | little to no off-target editing | SUM Editing %-Human Primary Hepatocytes Treat rep 2 (TTR on-target site; GA461 On-target TACTCACCTCTGCATGCTCA): 58.9% |
| GA458: guide RNA, cyno TTR, protospacer GCCATCCTGCCAAGAACGAG (SEQ ID NO: 28), gRNA SEQ ID NO: 29; cynomolgus equivalent of GA457 (nucleic acid) guide: mG*mC*mC*rArUrCrCrUrGrCrCrArArGrArArCrGrArGrGrUrUrUrUrArGrArGrCrUrArGrArArArUrArGrCrArArGrUrUrArArArArUrArArGrGrCrUrArGrUrCrCrGrUrUrArUrCrArArCrUrUrGrArArArArArGrUrGrGrCrArCrCrGrArGrUrCrGrGrUrGrCrU*mU*mU*mU |  |  |  |  |  |  |  |  | 6.06 | 10.65 | 16.07 | 22.74 | 27.25 | 35.91 | high editing activity |  |  |
| GA459: guide RNA, human TTR, protospacer GCAACTTACCCAGAGGCAAA (SEQ ID NO: 25), gRNA SEQ ID NO: 13 (nucleic acid, chemistry not given here) guide: GCAACTTACCCAGAGGCAAAGTTTTAGAGCTAGAAATAGCAAGTTAAAATAAGGCTAGTCCGTTATCAACTTGAAAAAGTGGCACCGAGTCGGTGCTTTT | high editing efficiency | 3.79 | 3.89 | 5.46 | 6.15 | 8.5 | 8.69 |  |  |  |  |  |  |  |  | little to no off-target editing | SUM Editing %-Human Primary Hepatocytes Treat rep 1 (TTR on-target site; [7]): 14.17%; SUM Editing %-Human Primary Hepatocytes Treat rep 2 (TTR on-target site; [7]): 14.29% |
| GA521: modified guide RNA, human TTR, GA457 spacer with 2′-O-methyl modified tracr, SEQ ID NO: 11 (nucleic acid, chemistry not fully specified) guide: GCCATCCTGCCAAGAATGAGGTTTTAGAGCTAGAAATAGCAAGTTAAAATAAGGCTAGTCCGTTATCAACTTGAAAAAGTGGCACCGAGTCGGTGCTTTT |  |  |  |  |  |  |  |  |  |  |  |  |  |  |  |  | percent base editing in primary human hepatocytes (TTR gene): greater than 40% |
